One assay concerns O2 LPS. Description: ELISA binding to O2 LPS. Also on record: species or system Klebsiella pneumoniae. The note with it: secondary screening, ELISA. In short, it runs like this:
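Serial dilutions of monoclonal antibodies bound to LPS-coated plates for 1 h at room temperature, detected with alkaline phosphatase-conjugated anti-human IgG (1 h) and pNPP substrate (30 min). Absorbance read at 405 nm; EC50 values derived from binding curves.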

The test system of assay [1] is K. pneumoniae 8570ΔcpsBLux (O2). Description: Opsonophagocytic killing (OPK) assay, O2 capsule mutant. The format is cell-based, Klebsiella pneumoniae. Also on record: key to D Capsule OPK O2: +++: Strongly positive activity; +: Positive activity; +/−: Somewhat positive depending upon the test conditions. The note with it: capsule mutant strain 8570ΔcpsB lux (O2). In short, it runs like this:
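Luminescent capsule-deficient K. pneumoniae strains were mixed with DMF-differentiated HL-60 cells, 1:10 baby rabbit serum and anti-O2 LPS mAbs (2 ng–2.5 μg/mL), then shaken for 2 h at 37 °C. Killing % came from luminescence (RLU) against no-antibody and negative-control mAb wells, with >40% scored as positive.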

A further assay deals with KPC strain Kp961842_O2. Briefly: Lethal pneumonia model, KPC strain Kp961842_O2. It is filed as in vivo, Klebsiella pneumoniae. The note with it: C57/BL6 mice, 2e8 CFU; mAb 2 mg/kg 1 hour post infection; survival. How it is done: (§1) C57/BL6 mice were obtained from Jackson Laboratories and maintained in a special pathogen-free facility. All animal experiments were conducted in accordance with Institutional Animal Care and Use Committee (IACUC) protocol and guidance. K. pneumoniae strains were grown on agar plates overnight and diluted in saline at proper concentration. The inoculum titer was determined by plating a serial dilution of bacteria onto agar plates prior to and post challenge. In acute pneumonia models, C57/BL6 mice were inoculated with 1e4 to 2e8 colony-forming units (CFU) of K. pneumoniae clinical isolates in 50 μl saline intranasally. Anti-K pneumoniae monoclonal antibodies (mAbs) and human IgG1 control antibodies were given 1-24 hour post bacterial challenge (therapeutic dosing). Mouse survival was monitored daily until up to day 8. Survival data of representative experiments were plotted in Graphpad Prism software.
(§2) Mice were challenged with 2e8 CFU of Klebsiella pneumoniae Carbanpenemase (KPC) strain Kp961842_O2 or with 3e8 CFU of KPC strain Kp977778_O2, followed by the administration of anti-O2 mAbs. When administered at a concentration of 2 mg/kg 1 hour post bacterial infection, Class III anti-O2 LPS mAbs KPN42, KPN179-IgG1, and KPS44v2017 protected mice from lethal bacterial challenge with the multi-drug resistant KPC strains Kp961842_O2 (FIG. 6, left panel, and FIG. 10) and Kp977778_O2 (FIG. 6B, right panel).

For a further assay, the system named is KPC strain Kp977778_O2. Briefly: Lethal pneumonia model, KPC strain Kp977778_O2. The format is in vivo, Klebsiella pneumoniae. To be noted: C57/BL6 mice, 3e8 CFU; mAb 2 mg/kg 1 hour post infection; survival. On the procedure: as §1, §2
Another assay deals with K. pneumoniae O2. Description: Mouse protection models (O2), Table 7 summary. The note with it: mouse pneumonia models. Also on record: key: +++: Strongly positive activity; +: Positive activity; +/−: Somewhat positive depending upon the test conditions. It is filed as in vivo, Klebsiella pneumoniae. How it is done:
As described in more detail in below, anti-O2 LPS mAbs were tested for: 1) binding to O1 and O2 LPS (see Example 5); 2) LPS neutralization (LPS-Neut) against O1 and O2 LPS (see Example 7); 3) OPK against capsule mutant strain 43816ΔcpsB lux (O1) and 8570ΔcpsB lux (O2) (see Example 8); and 4) protective activity in pneumonia models (see Example 9). O2 LPS mAbs were subsequently divided into three classes based on their in vitro activities. Class I mAbs were characterized as Binding (O1+O2+)/OPK (O1−O2+); Class 2 mAbs were characterized as Binding (O1+O2+)/OPK (O1+O2+); and Class III mAbs were characterized as Binding (O1±O2+)/OPK (O1−O2+).
as §1, §2

B1: KPN179: Class III anti-O2 antigen human mAb; VH SEQ ID NO: 53, VL SEQ ID NO: 54 (antibody, V domains shown)
VH: EVQVVESGGGLVKPGGSLRLSCAASGFTFNNAWMNWVRQAPGKGLEWVGRIKRKADGETTDYPASVKGRFTVSRDDSKNTIYLQMNSLKTEDTAIYYCTTRIVTTNDYWGQGTLVTVSS
VL: QSALTQPPSVSGSPGQSVTISCTGTSSDVGYYDYVSWYQQHHPGKAPKHMIYDVNKRPSGVPDRFSGSKSGNTASLTISGLQAEDEADYYCCSYAGGDTFVFGTGTKVTVL
modifications: Description of Artificial Sequence: SyntheticKPN179 VH polypeptide; Description of Artificial Sequence: SyntheticKPN179 VL polypeptide
Regarding B1, the “binding to LPS-O2” value with O2 LPS was “bind”. For the same molecule, the “D Capsule OPK O2” value in assay [1] was “+++”. Besides, the “protection from lethal bacterial challenge, Kp961842_O2” value in the assay with KPC strain Kp961842_O2 is given as “protected”. Further, the “protection from lethal bacterial challenge, Kp977778_O2” value in the assay on KPC strain Kp977778_O2 is “protected”. Also, the “Mouse protection models (O2)” value with K. pneumoniae O2 is on record as “+++”.

For the origin of these results see patent publication US12312397B2, “Anti-O2 antibodies and uses thereof” (priority 2016, dated 2025).
